The values that follow come from patent publication US20160031955A1 (INSERM INSTITUT NATIONAL DE LA SANT ET DE LA RECHERCHE M …, published 2016).

The test addresses T1, endogenous AIF (apoptosis inducing factor) contained in human cell lysates (human, UniProt O95831 55-613, limits assumed).
T1 construct: Endogenous protein in cell lysate; also called AIF contained in the lysate of U2OS cells
Briefly: co-immunoprecipitation from human cancer cell lysates.

T1 sequence (O95831 55-613 limits assumed): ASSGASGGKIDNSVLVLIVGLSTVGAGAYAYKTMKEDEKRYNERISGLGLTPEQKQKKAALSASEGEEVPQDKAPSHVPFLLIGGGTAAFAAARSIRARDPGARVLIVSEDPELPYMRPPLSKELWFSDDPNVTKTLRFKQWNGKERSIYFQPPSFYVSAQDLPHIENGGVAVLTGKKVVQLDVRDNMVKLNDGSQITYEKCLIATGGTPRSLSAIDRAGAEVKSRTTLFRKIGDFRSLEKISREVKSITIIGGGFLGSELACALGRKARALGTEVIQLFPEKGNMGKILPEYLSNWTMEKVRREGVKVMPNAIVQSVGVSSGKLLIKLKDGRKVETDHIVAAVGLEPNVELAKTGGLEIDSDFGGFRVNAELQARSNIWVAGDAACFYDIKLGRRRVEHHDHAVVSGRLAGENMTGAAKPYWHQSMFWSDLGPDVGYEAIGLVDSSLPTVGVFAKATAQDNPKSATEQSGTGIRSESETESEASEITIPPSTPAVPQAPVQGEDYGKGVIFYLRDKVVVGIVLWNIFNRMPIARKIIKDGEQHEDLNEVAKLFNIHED

B1: CHCHD3 (other, human, UniProt Q9NX63 2-227, looked up)
chain: GGTTSTRRVTFEADENENITVVKGIRLSENVIDRMKESSPSGSKSQRYSGAYGASVSDEELKRRVAEELALEQAKKESEDQKRLKQAKELDRERAAANEQLTRAILRERICSEEERAKAKHLARQLEEKDRVLKKQDAFYKEQLARLEERSSEFYRVTTEQYQKAAEEVEAKFKRYESHPVCADLQAKILQCYRENTHQTLKCSALATQYMHCVNHAKQSMLEKGG
notes: also called a MIA40 family member
For B1, the binding result is reported as “no binding”.
